From patent US20200355707A1

Key:
[1] = biological target: biotinylated anti-human-serum-albumin antibody; test: ellipsometry; biotinylated anti-HSA (5 µM) layer on streptavidin-modified rSAM; binding through biotin
[2] = biological target: biotinylated prostate specific antigen antibody (ABIN 192197); test: ellipsometry; biotinylated anti-PSA (5 µM) layer on streptavidin-modified rSAM; binding through biotin
[3] = biological target: prostate specific antigen (ABIN572980) (UniProt P07288); test: in situ ellipsometry, PSA from buffer media
[4] = biological target: prostate specific antigen (ABIN572980) (UniProt P07288); test: in situ ellipsometry on rSAM-SA-anti-PSA sensor, buffer
[5] = biological target: prostate specific antigen (ABIN572980) (UniProt P07288); test: ellipsometry; PSA layer formed on rSAM-SA-biotinylated anti-PSA
[6] = biological target: prostate specific antigen (ABIN572980) (UniProt P07288); test: in situ ellipsometry; PSA spiked into 200-fold diluted human serum
[7] = biological target: prostate specific antigen (ABIN572980) (UniProt P07288); test: in situ ellipsometry; 100 pM antigen in borate buffer pH 8 on the antibody-modified rSAM

top layer thickness [1] [nm] | top layer thickness [2] [nm] | maximum surface coverage [3] [mg/m^2] | detection limit [4] [fM] | top layer thickness [5] [nm] | film thickness increase [6] [nm] | film thickness increase [7] [nm] | Substance
3.4 | 4 |  |  |  |  |  | streptavidine (from UniProt P22629 37-163)
 |  | 2.4 | 40 | 4 | 4 | 4 | biotinylated prostate specific antigen antibody (ABIN 192197)
